# Reference: publication PMC2064313 (The Journal of Cell Biology, 2006)
# Numbering of substitutions follows the chain as printed. Names and notes keep the numbering of the source.
# T1: MBP-tagged FRLα C terminus (residues 612–1,094) (UniProt Q9JL26-1 612-1094)
# T1 sequence: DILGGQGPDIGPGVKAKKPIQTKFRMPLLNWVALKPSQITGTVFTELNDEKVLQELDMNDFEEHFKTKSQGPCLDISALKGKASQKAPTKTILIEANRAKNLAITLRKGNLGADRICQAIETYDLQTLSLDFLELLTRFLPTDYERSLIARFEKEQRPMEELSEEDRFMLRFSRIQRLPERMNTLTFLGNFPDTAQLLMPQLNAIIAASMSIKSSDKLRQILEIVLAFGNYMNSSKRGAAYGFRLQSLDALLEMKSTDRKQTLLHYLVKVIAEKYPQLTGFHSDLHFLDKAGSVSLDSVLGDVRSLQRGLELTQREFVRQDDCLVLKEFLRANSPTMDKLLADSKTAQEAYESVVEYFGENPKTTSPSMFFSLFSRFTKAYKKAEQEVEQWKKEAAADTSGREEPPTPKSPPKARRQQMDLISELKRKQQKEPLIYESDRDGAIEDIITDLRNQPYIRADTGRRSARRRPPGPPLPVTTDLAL
# T2: FRLα C terminus (residues 612–1,094), untagged (UniProt Q9JL26-1 612-1094)
# T2 sequence: T1 sequence
# B1: GST-tagged FRLα N terminus (residues 1–450) (domain or fragment)
# chain: MGNAAGSAEQPAGPTASPPKQPAVPKQPMPAAGELEERFTRVLNCMNLPPDKVQLLSQYDNEKKWELICDQERFQVKNPPAAYIQKLKSYLDTGGVSRKVASDWMSNLGFKRRVQESTQVLRELETSLRTNHIGWVQEFLNEENRGLDVLLEYLAFAQCSVAYDMESTDSVASGAEKSKPLDQSVEDLSKAPPSSVPKSRLTIKLTPAHSRKALRNSRIVSQKDDVHVCIMCLRAIMNYQSGFSLVMNHPACVNEIALSLNNKSPRTKALVLELLAAVCLVRGGHDIILAAFDNFKEVCGEQHRFEKLMEYFRHEDSNIDFMVACMQFINIVVHSVENMNFRVFLQYEFTHLGLDLYLERLRLTESDKLQVQIQAYLDNVFDVGTLLEETETKNAVLEHMEELQEQVATLTERLRDTENDSMAKIAELEKQLSQARKELETLRERFSEST
# B2: GST–N terminus T126D of FRLα (residues 1–450) (domain or fragment)
# chain: B1 chain with T126D
# What was measured:
# [1] = biological target: T1, MBP-tagged FRLα C terminus (residues …); assay: pull-down
# [2] = biological target: T2, FRLα C terminus (residues 612–1,094), …; assay: pull-down
Binder,binding result [1],binding result [2]
B1,binds,binds
B2,,binds
